The target in assay [1] is T1, Recombinant Human DLL4 (R&D Systems Cat#1506-D4/CF) (human, UniProt Q9NR61 27-524).
T1 construct: Bought from R&D Systems; also called rHuman DLL4; delta-like protein 4
Put plainly: MSD multispot ECL, antigen spotted on plate, Fab 88.1 nM; blank spot 301.

The target in assay [2] is T2, rHuman ErbB2/Fc Chimera, CF (R&D Systems Cat#1129-ER) (human, UniProt P04626 23-652).
T2 construct: Bought from R&D Systems; also called human epidermal growth factor 2 receptor (ErbB2); not shown: Fc of the bought chimera
The description is as above.

Assay [3] addresses T3, rHuman HGF R/c-MET/Fc Chimera, CF (R&D Systems Cat#358-MT/CF) (human, UniProt P08581 25-932).
T3 construct: Bought from R&D Systems; also called HGF R/Fc; hepatocyte growth factor receptor (HGF R/c-Met); not shown: Fc of the bought chimera
The assay is described as above.

Assay [4] has as its target T4, rHuman Notch-1/Fc Chimera, CF (R&D Systems Cat#3647-TK) (human, UniProt P46531 19-526).
T4 construct: Bought from R&D Systems; not shown: Fc of the bought chimera
Described as above.

In assay [5] the target is T5, rHuman CD44/Fc Chimera, CF (R&D Systems Cat#3660-CD) (human, UniProt P16070 21-220).
T5 construct: Bought from R&D Systems; not shown: Fc of the bought chimera
Described as above.

In assay [6] the target is T6, rHuman Erythropoietin R/Fc Chimera, CF (R&D Systems Cat#963-ER) (human, UniProt P19235 25-250).
T6 construct: Bought from R&D Systems; also called EPO R/Fc; Epo R/Fc chimera; not shown: Fc of the bought chimera
T6 sequence (looked up): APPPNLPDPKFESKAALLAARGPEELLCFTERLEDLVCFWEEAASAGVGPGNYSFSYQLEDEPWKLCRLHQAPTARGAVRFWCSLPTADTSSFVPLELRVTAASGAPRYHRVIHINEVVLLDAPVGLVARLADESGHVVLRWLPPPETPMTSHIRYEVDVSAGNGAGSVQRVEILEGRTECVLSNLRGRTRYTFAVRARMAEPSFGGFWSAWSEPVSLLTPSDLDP
Described as above.

Assay [7] deals with T7, rHuman Erythropoietin R/Fc Chimera, CF (R&D Systems Cat#963-ER) (human, UniProt P19235 25-250).
T7 construct: Bought recombinant protein; also called EPO R; EPO R/Fc; Fc part of the bought chimera not given
T7 sequence (looked up): T6 sequence (looked up)
In words: ECL Multispot (MSD), antigen spotted; Fab 5 (µM); blank 211.

The target in assay [8] is T8, Recombinant Human DLL4 (R&D Systems Cat#1506-D4/CF) (human, UniProt Q9NR61 27-529).
T8 construct: Bought recombinant protein; also called delta-like protein 4; rHuman DLL4
The description is as above.

The target in assay [9] is T9, rHuman ErbB2/Fc Chimera, CF (R&D Systems Cat#1129-ER) (human, UniProt P04626 23-652).
T9 construct: Bought recombinant protein; Fc part of the bought chimera not given
The assay is described as above.

In assay [10] the target is T10, rHuman EGF R/Fc Chimera, CF (R&D Systems Cat#344-ER) (human, UniProt P00533 25-645).
T10 construct: Bought recombinant protein; Fc part of the bought chimera not given
The description is as above.

For assay [11], the target named is T11, rHuman HGF R/c-MET/Fc Chimera, CF (R&D Systems Cat#358-MT/CF) (human, UniProt P08581 25-932).
T11 construct: Bought recombinant protein; also called HGF R/Fc; Fc part of the bought chimera not given
The description is as above.

The target in assay [12] is T12, rHuman Notch-1/Fc Chimera, CF (R&D Systems Cat#3647-TK) (human, UniProt P46531 19-526).
T12 construct: Bought recombinant protein; Fc part of the bought chimera not given
Described as above.

Assay [13] concerns the target T13, rHuman CD44/Fc Chimera, CF (R&D Systems Cat#3660-CD) (human, UniProt P16070 21-220).
T13 construct: Bought recombinant protein; Fc part of the bought chimera not given
Described as above.

In assay [14] the target is T14, rHuman IGF-1 sR, CF (R&D Systems Cat#391-GR) (human, UniProt P08069 31-932).
T14 construct: Bought recombinant soluble receptor; also called insulin-like growth factor-1 soluble receptor
Described as above.

The target in assay [15] is T15, rHuman P-Cadherin/Fc Chimera, CF (R&D Systems Cat#861-PC) (human, UniProt P22223 108-654).
T15 construct: Bought recombinant protein; Fc part of the bought chimera not given
Described as above.

Assay [16] has as its target T16, Recombinant Human DLL4 (R&D Systems Cat#1506-D4/CF) (human, UniProt Q9NR61 27-524).
T16 construct: Bought recombinant protein; also called rHuman DLL4; delta-like protein 4
Put plainly: Multispot ECL (MSD), antigen spotted on plate, Fab 250 nM; blank spot 590.

Assay [17] concerns the target T17, rHuman Notch-1/Fc Chimera, CF (R&D Systems Cat#3647-TK) (human, UniProt P46531 19-526).
T17 construct: Bought recombinant protein; Fc part of the bought chimera not given
Described as above.

Assay [18] has as its target T18, rHuman IGF-1 sR, CF (R&D Systems Cat#391-GR) (human, UniProt P08069 31-932).
T18 construct: Bought recombinant soluble receptor; also called insulin-like growth factor-1 soluble receptor
The assay is described as above.

Assay [19] has as its target T19, rHuman Erythropoietin R/Fc Chimera, CF (R&D Systems Cat#963-ER) (human, UniProt P19235 25-250).
T19 construct: Bought recombinant protein; also called EPO R/Fc; Epo R; Fc part of the bought chimera not given
T19 sequence (looked up): T6 sequence (looked up)
The description is as above.

Numbering of substitutions follows the chain as printed. Names may count otherwise.

B1: Fab VH1-46_IGHD3-10*01_IGHJ4*01 & B3_IGKJ1*01 (Fab, V domains shown)
VH: QVQLVQSGAEVKKPGASVKVSCKASGYTFTSYYMHWVRQAPGQGLEWMGIINPSGGSTSYAQKFQGRVTMTRDTSTSTVYMELSSLRSEDTAVYYCAREYYYGSGSYYNDYFDYWGQGTLVTVSS
VL: not shown
notes: Tested as a Fab made in E. coli; VH was cloned into Plasmid A (CH1 constant region, His6 and Flag tags); The kappa VL was cloned into Plasmid C (kappa CL)
Regarding B1, the ECL signal is 434 in assay [1]; 200 in assay [2]; 392 in [3]; 440 in [4]; 340 in assay [5]; 3370 in [6].

B2: Fab VH1-46_IGHD6-6*01_IGHJ1*01 S102A/S103P/S104F (APF) & L6_IGKJ1*01 (Fab, V domains shown)
VH: QVQLVQSGAEVKKPGASVKVSCKASGYTFTSYYMHWVRQAPGQGLEWMGIINPSGGSTSYAQKFQGRVTMTRDTSTSTVYMELSSLRSEDTAVYYCAREEYAPFSAEYFQHWGQGTLVTVSS
VL: not shown
notes: Tested as a Fab made in E. coli: VH cloned in Plasmid A (CH1 constant region, His6 and Flag tags), VL in Plasmid C (kappa constant region); also called H:APF & L:wt; APF triple mutant
In the case of B2, the ECL signal in [7] was 423; in assay [8], 54900; in [9], 401; in assay [10], 356; in [11], 309; in assay [12] it was 338. Further, the ECL signal worked out at 343 in assay [13], 300 in assay [14] and 547 in assay [15].

B3: Fab VH1-46_IGHD6-13*01_IGHJ4*01 & B3_IGKJ1*01 (Fab, V domains shown)
VH: B2 VH with E100G, A102S, P103S, F104S, S105W, A106Y, E107D, Q110D, H111Y
VL: not shown
notes: Germline Fab made in E. coli; VH was cloned into Plasmid A (CH1, His6 and Flag tags) and the kappa VL into Plasmid C (kappa CL)
B3: the ECL signal turned out to be 1560 in assay [16], 1240 in assay [17], 993 in assay [18] and 8540 in assay [19].

These data come from US20120316071A1 (published 2012).
